Usually Km stands for the substrate concentration at which the rate is half of its maximum.

Here are results for seven molecules from paper PMC9700705, “A non-carboxylating pentose bisphosphate pathway in halophilic archaea” (Communications Biology, 2022).

The target of data set [1] is T1, Hx-RbsK (ATP-R1PK) (Halopiger xanaduensis, UniProt F8D4I6).
T1 construct: gene Halxa_1682; recombinant from E. coli Rosetta (DE3), codon-optimised synthetic gene in pET-21a(+) NdeI/BamHI, purified on anion exchange, hydroxyapatite and gel filtration
Nature of the data set: PK/LDH-coupled NDP quantification; HPLC of product R15P. The data set is classed as biochemical. Particulars: 20 mM MgCl2, 2 M KCl, pH 8.3-8.4, 47 °C.

In data set [2] the target is T1, Hx-RbsK (ATP-R1PK). Description: PK/LDH-coupled NDP quantification. The format is biochemical. Particulars: 25 mM R1P, 20 mM MgCl2, 0.8 M NaCl, 42 °C.
In data set [3] the target is T2, glycolaldehyde reductase (GaR, VNG_6270G) (Halobacterium salinarum, UniProt Q9HHR2).
T2 construct: native protein purified from H. salinarum cell-free extract (hydroxyapatite, Superdex200), identified by LC-MS; plasmid-encoded; GenBank entry is the codon-optimised recombinant gene (Hs-GaR)
T2 sequence (Q9HHR2 1-365): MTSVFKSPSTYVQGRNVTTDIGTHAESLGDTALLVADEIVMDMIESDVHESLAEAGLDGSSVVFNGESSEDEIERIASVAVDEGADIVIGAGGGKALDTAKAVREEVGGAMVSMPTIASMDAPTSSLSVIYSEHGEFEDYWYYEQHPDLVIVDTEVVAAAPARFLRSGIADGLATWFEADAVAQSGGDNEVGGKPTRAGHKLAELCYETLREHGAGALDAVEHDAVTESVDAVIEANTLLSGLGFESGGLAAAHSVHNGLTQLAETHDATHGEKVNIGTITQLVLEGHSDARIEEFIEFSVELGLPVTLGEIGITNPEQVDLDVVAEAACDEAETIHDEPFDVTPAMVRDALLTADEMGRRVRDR
Description: NADH consumption at […] nm. The format is biochemical. Particulars: 0.2 mM NADH, 50 mM MES-NaOH pH 6.0, 3 M KCl, 40 °C; fit with substrate inhibition; substrate inhibition constant, second site.

Substrate in data set [4]: O=P(O)(O)O
Description: purified protein. The following applies: 1 mM guanosine, 2 M KCl, 30 °C.

Substrate in data set [5]: Nc1nc2c(ncn2[C@@H]2O[C@H](CO)[C@@H](O)[C@H]2O)c(=O)[nH]1
Nature of the data set: purified protein. The format is biochemical, Halorubrum lacusprofundi. Particulars: 50 mM sodium phosphate pH 7.5, 2 M KCl, 30 °C.

Substrate in data set [6]: O=C(COP(=O)(O)O)[C@H](O)[C@H](O)COP(=O)(O)O
Description: purified protein. The data set is classed as biochemical, Halopiger xanaduensis. Particulars: 50 mM Tris-HCl pH 7.5, 2 M KCl, 5 mM MgCl2.

Substrate in data set [7]: O=C(CO)COP(=O)(O)O
Nature of the data set: HPLC of Ru1P formed (condensation direction). The data set is classed as biochemical, Halopiger xanaduensis. Particulars: 50 mM glycolaldehyde, 50 mM Tris-HCl pH 8.0, 2 M KCl, 1 mM ZnCl2, 47 °C.

Substrate in data set [8]: O=CCO
Description: HPLC of Ru1P formed (condensation direction). The format is biochemical, Halopiger xanaduensis. Particulars: 20 mM DHAP, 50 mM Tris-HCl pH 8.0, 2 M KCl, 1 mM ZnCl2, 47 °C.

Substrate in data set [9]: O=CCO
Description: purified protein. The format is biochemical, Halobacterium salinarum. The following applies: 0.2 mM NADH, 50 mM MES-NaOH pH 6.0, 3 M KCl, 40 °C, fit with substrate inhibition.

T1 sequence (F8D4I6 whole entry): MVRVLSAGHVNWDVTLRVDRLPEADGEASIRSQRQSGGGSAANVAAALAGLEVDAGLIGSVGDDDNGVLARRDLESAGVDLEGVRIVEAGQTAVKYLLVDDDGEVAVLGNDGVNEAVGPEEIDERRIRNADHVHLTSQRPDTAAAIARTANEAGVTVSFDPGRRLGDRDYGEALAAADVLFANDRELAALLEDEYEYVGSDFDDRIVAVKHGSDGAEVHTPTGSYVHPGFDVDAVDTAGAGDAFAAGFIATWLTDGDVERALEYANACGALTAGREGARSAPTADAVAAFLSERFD

With `O=P(O)(O)O[C@H]1O[C@H](CO)[C@@H](O)[C@H]1O` [R1P], the “PK/LDH-coupled NDP quantification; HPLC of product R15P” value on Hx-RbsK (ATP-R1PK) [1] was “HPLC analysis of the Hx-RbsK reaction product indicated that R15P was generated from R1P”.

Turning to `Nc1ncnc2c1ncn2[C@@H]1O[C@H](COP(=O)(O)OP(=O)(O)OP(=O)(O)O)[C@@H](O)[C@H]1O` [ATP], the “PK/LDH-coupled NDP quantification” value at Hx-RbsK (ATP-R1PK) [2] is “Using R1P as the phosphate acceptor, the enzyme preferred ATP among NTPs”.

Regarding `O=CCO` [glycolaldehyde], in data set [3], the Ks2 was determined as 35 ± 8 mM.

B1: Hl-Urdpase1 (guanosine phosphorylase) (Halorubrum lacusprofundi ATCC 49239) (protein)
chain: MAKQPHLLVEEGDVHEIAIIPGDPGRVDRIADLCDDSELVAQNREYKIVNASYDGTDLTICSTGIGCPSAAIAVEELSRVGVETFLRCGTCGALQADMEVGDMVVATGAAKEEGTSKRYESVEYPAVPDYDALTELVGAAEDNDEEIHVGPIVSDDAFYNESDEYVDDWNDANLLAIEMEAATVFALARRKGLRAGAICTVDGNLVAGNQKGADSDDELPEKAKDNVERAIRITLNAVTAL
notes: recombinant from E. coli BL21-CodonPlus(DE3)-RIL, codon-optimised synthetic gene in pET-21a(+) NdeI/BamHI, purified on hydroxyapatite and gel filtration
With B1, the Km in “purified protein [4]” was found to be 4.8 ± 0.8 mM; in the data set “purified protein [5]”, 0.056 ± 0.01 mM.

B2: Hx-HAD hydrolase (RuBP phosphatase) (Halopiger xanaduensis SH-6) (protein)
chain: MATAVLFDLDNTLYPYPPCNQAGKAAALERAQELGYDFDHESFAEFYQAGRREVKRDTGGTAASHERYLYFKRALELHTGSPRPGDALALGDAYWSAYLEEMSLVPDAKETLEELQEQGVDIAITTNLTTTIQLAKLERLGLTDYVDLVLTSEETGQEKPASVMFTLPLARLDSRASEAVMVGDDLEADIAGANAVGLETVLFDPSEESDATESADRAATERQADHSIDTLGELTDLVS
notes: recombinant from E. coli Rosetta (DE3), codon-optimised synthetic gene in pET-21a(+) NdeI/BamHI, purified on hydroxyapatite and gel filtration
Turning to B2, the Km in “purified protein [6]” is 2.2 ± 0.5 mM.

B3: Hx-FucA (Ru1P aldolase) (Halopiger xanaduensis SH-6) (protein)
chain: MILETERRAVVEHASELADLTPGRTGNLSVRGSGDDTDAGPGDAFAITPTGVPYDGFDVEDVPVVGTDGERLDGEMAPSSEVPMHSAIYRREDVGAIVHTHSPWATALAVANQPLPPIHYMIVAVGKRVPVAEYAPYGTDELAENIVTAMTEAGSTASLIENHGLVVTAPDLETALENTHHVESLARLYLESRSAGLEPQTLTDDQLETVLEKFESYGQ
notes: recombinant from E. coli Rosetta (DE3), codon-optimised synthetic gene in pET-21a(+) NdeI/BamHI, purified on anion exchange, hydroxyapatite and gel filtration
As to B3, the Km in [7] was 3.5 ± 0.3 mM; in data set [8] it was 3.4 ± 0.3 mM.

B4: glycolaldehyde reductase (GaR, VNG_6270G) (Halobacterium salinarum NRC-1) (protein)
chain: T2 sequence (Q9HHR2 1-365)
notes: native protein purified from H. salinarum cell-free extract (hydroxyapatite, Superdex200), identified by LC-MS; plasmid-encoded; GenBank entry is the codon-optimised recombinant gene (Hs-GaR)
In the case of B4, in “purified protein [9]”, the Km stood at 10 ± 2 mM.
